The series is described as follows: soluble fraction after stress (log2 fold change); higher = more stays soluble; pooled small domains, quantitative proteomics. Particulars: stress: pH 4. The method, boiled down: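 Custom libraries of small protein domains were pooled and exposed to pH 4. High-throughput quantitative proteomics then measured the log2 fold change in the amount of each domain still soluble, with higher values meaning more stayed soluble. This soluble-fraction fold change stands for aggregation propensity.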

The results in this text go back to the domain aggregation screens of Martell et al. (2025).

Bounds are passed on as bounds.

For “HMRVESVGDRIRRLRKSLGLTQVKLAQMLGIKAPSVVQWESDKTNLSGENLLNAAKLFGVTPDYILYGG”, the “soluble fraction (log2)” value is 0.233.
In the case of “HMRVLEYTADGSRLDVLLSQDGVLSRSRAAELIKGGAVTVDGRAEGKPSAKPAPGALVRVEVPE”, the “soluble fraction (log2)” value was at least 0.43.
As for “HMRVVGRNHYDDADLAHIRSVIQLEARPLNVSRIARTLANEYPKHTYWSYLSFLQKNLRDRPDLF”, the “soluble fraction (log2)” value was 0.419.
Take “HMRVVPEILERAVAVFEALGVDRLPSSTLADRLGYDSPEALADVLRPLGVRPKKYRDGKSTARGYLAADLG”: the “soluble fraction (log2)” value is -0.284.
As for “HMRYEESVTLGERLLNQSLVALKADNIDDALWERFLREEAGEKSRQEILSDIGLGKRLPVVVAKRLLAPS”, the “soluble fraction (log2)” value is -0.982.
As to “HMRYPLPYAFARSQQLLLEETDDGRYTLWMSSHPARSAVGEVSRKYGVQTFEVLADGPLAQRISAAYAQ”, the “soluble fraction (log2)” value is 0.0965.
As for “HMRYTAAEMAKKLDISRSYLYYLKEAGVVEIEKNENGKPIWTESVYNQLFEYIKKNHRTEEADNTQ”, the “soluble fraction (log2)” value is -0.61.
On to “HMSAAIGEAVIATDEINVRSGPGLSHEIVSVVSRNESYPILEERGDWVQIQLNGGQKGWVVSWLIKKKS”, for which the “soluble fraction (log2)” value was -0.268.
With “HMSAAMTESVLDGIPGLGATRKAALLAHFGSVRKLRAATSEQVREVPGIGPRLAETILATLHEP”, the “soluble fraction (log2)” value stood at 0.0277.
On to “HMSAATGIINTDNVNIRSGPATTYDAVGRLNQGSSVEILSSRNDWYQIQANSLKGWVRNDLLNVQK”, for which the “soluble fraction (log2)” value was found to be 0.0683.
For the sequence “HMSADDLVSRTQAIVAELKDLEGPLLPILHSVQEAFGHVPDEVKPVIAEALNLSRAEVHGVVSFYHDFRAH”, the “soluble fraction (log2)” value was -0.571.
Consider “HMSADIGAEKAKTIALNHAGVSASNAVFLHAKLDYDDGRRTYEVEFYSGSKEYDYEIDAATGEILSYDFD”, for which the “soluble fraction (log2)” value is 0.327.
“HMSAEAYLSFVKKENLRAAVVNYENNKEWLKDVPHERLLDLAVFAKVDMGEPGMSMKFNNWLLSR”: the “soluble fraction (log2)” value is -1.12.
For “HMSAEKDGEWLTLTEAAKHLQVSPHVIRRLIQTGALPAEQVMRGAPHQIRAADLDTDRVKTMIAR”, the “soluble fraction (log2)” value is 0.228.
As for “HMSAEKPVKSELFYKSMLNSFEQAVRFMIANGILEDFKSRIVAINNETNHQNWFNKQEFNAIIERF”, the “soluble fraction (log2)” value is -0.032.
For the sequence “HMSAERFDFRIGPELAGKRFDQALAEALPQFSRSRLSTWIKDGRATLNGATMRPKDSVHAGDTVVVNAE”, the “soluble fraction (log2)” value was 0.255.
As to “HMSAEVEVPDVVGRQVALAVQLIETKKLRVNVAETYDAKVPPGQVISQSPEAGMKVKEERVITIYVSR”, the “soluble fraction (log2)” value was found to be 0.153.
As to “HMSAGISVADVTNRTYDEGYNTLTAQHLLVNKVYEANETIPLDTIIRTDPVAGTKVPDNTSITVYVSSGK”, the “soluble fraction (log2)” value is -0.025.
As for “HMSAGPQGRTPREDELTVGTKVYVSRVGASGVVSSDVSRGKVVVQVGALRLTAAVSELLLLDG”, the “soluble fraction (log2)” value is -0.472.
As for “HMSAGYTYQNYQQDLKSGNVQNIHIYLSEEMYSGNVKVIYKNNKSVTFTVTDVTIAEAEARQVGISPIIYE”, the “soluble fraction (log2)” value was -0.504.
As for “HMSAHDLQVVLRWIGTDEPMTDQRYRITTEDGRTFEGRTDDAGLTERVASTIPFGRYSIEALD”, the “soluble fraction (log2)” value is -1.
As to “HMSAIEIDAEKILNYLTDRGGKMPYGDTTAPEVIKDKFNISKAAFKRALGFLLRSNKIEQIDGWTYI”, the “soluble fraction (log2)” value was -0.375.
With “HMSAIKSVTTQLDNTKLRTGPDVSYQYTQSYPANTKLTYINKSGTWYQVKDADGNTGYVASWVVTPSE”, the “soluble fraction (log2)” value amounted to 0.387.
As to “HMSALIGAHTLERIDSRDFEGVVMAWLPKRDGYDSLYKIYHIEDGDFEELDDREVQAAISLFIEGT”, the “soluble fraction (log2)” value was -0.388.
On to “HMSAPAMTLDSIRSLLNDRDPWVVTQTVEWLVGLGPQVKTILETLTLESSDAARQAQNALDRINVRNYP”, for which the “soluble fraction (log2)” value was -1.08.
As to “HMSAPNPGQMHSWTDTQGRTLQATFIKADATTVTLNWNGRIVPIPLANLNAASQKLARELASAS”, the “soluble fraction (log2)” value was -0.0969.
In the case of “HMSAPRRGETTAASLNLRAGPATDADILAQLPERTPLRVLQEDGEWLRVETHGNEGFVHRQFVAIPGDEP”, the “soluble fraction (log2)” value was -0.347.
Regarding “HMSARRHAVKHLDANQLQTRVARMLSEFGLTAKVSKDPNSNALIIDGAPEAQRIAAQLITTIDKE”, the “soluble fraction (log2)” value was found to be 0.063.
For the sequence “HMSASSDATRQRVLRAAEQLFGAKGVENVSLREMTTLAGVNLAAVNYHFGSKDALAEAVFEALSER”, the “soluble fraction (log2)” value came out at 0.138.
In the case of “HMSASSEALKTAVRKVLLNNRMTQDRMARDAGLSGSALSQWLHGKYQGDVPALEGRLAAWLADTQAS”, the “soluble fraction (log2)” value came to 0.132.
With “HMSASSTAPGSVTLRGAILTAWTAAGGERSKMGLPVGYEVRQADGTVTQTFEKGRISVSPTGTATI” the figure was -0.0391; with “HMSAVNLNDDEKAVYKSIKSGIRSLDELSLRTGMKIYELMAITVSLEMKGLVTKSPDGTLDAT”, -0.0308; with “HMSDAKKRAFSKDEILYSLKNRPFTSFDIESLFDDESKKTFIGLLDKGEISEKKVAGTIFYYLR”, -0.461.
For “HMSDEEAISKLPGVGPAILEKLKEAGYNDIMTIAVDSPKNLAELAEIGEPTAAKIIAAAKKAAD”, the “soluble fraction (log2)” value was -0.109.
In the case of “HMSDIDIDVENDRAALAIAGGKLNHLVGARGEVLDALQELTRLAVQTSLGERSRLMLDIDNFRSD”, the “soluble fraction (log2)” value amounted to 0.0463.
Regarding “HMSDIHARIAAALAALTSPEKIHDLVVDDDGKVSFTFHLTREDPATLVRDARKAVQAVDGVRDVKVNVVDP”, the “soluble fraction (log2)” value came to 0.00539.
As for “HMSDKEDIDKYLLTYGDLLFNRTNSSEWVGKTAIYRGEVSAIYAGYLIRIRSFLDAEYLNSVMNSKYA”, the “soluble fraction (log2)” value was -0.485.
With “HMSDKTSLTDDDKALINSMLPDYDKYPSVAKLQAVEIAKSSSKMATLLMLDERYNETVSEALE”, the “soluble fraction (log2)” value was -1.14.
With “HMSDLGEIEKIVDEVLAENITKVQEYKDGKKGLMGMFMGQIMKKSGGKADPKIANQLLTEKL”, the “soluble fraction (log2)” value stood at 0.138.
For “HMSDNHYLLEIFLADLKSDEKFIRELAIFQLHHHIESDKVRAELKAAAETESDPYLKGMIESLLSSTS”, the “soluble fraction (log2)” value was -1.2.
With “HMSDNYYSILGIETDATTDMIKRAYRRLSLELHPDRTKDNPILTEKYKKVNEAYGVLNDNDRKHIYDLQNI”, the “soluble fraction (log2)” value was -1.37.
Consider “HMSDPELAIPRVVGLSGNDAQAALVKAGFSAVTVVTVKNSEVTSEQVTHVVPAEGAKAKASTPVTVVVSSS”, for which the “soluble fraction (log2)” value stood at 0.15.
On to “HMSDRQLKRQANILYTTRKLASKVGYDGLTMRGLAEASEVSPKTLYNLFSSKDELLAAALEDLVGIV”, for which the “soluble fraction (log2)” value is 0.0711.
Take “HMSDTFTITTESGRIDKIITAHETTHTRSQVQKWLQDGLVTVNGNPVKANFKVTAGDVVTVTIPEVK”: the “soluble fraction (log2)” value was -0.0373.
As to “HMSDTMTVTNVKYAIYLRSTPSEASDANIIMEIPVGSKVTYLDTPNNTFYKISYGGTVGYSKQIYLTF”, the “soluble fraction (log2)” value was -0.482.
Regarding “HMSDVLPEAILERRLVKKGNRAVPQVLIKWTKLPATSATWEDFYVLQQRFPTALAWGQAPSPGGQM”, the “soluble fraction (log2)” value was -0.213.
To “HMSDVTPDVVRALRKRLKLTQVQFGEIFGMTSKKVSAWEHGKAEPTEEQKQKIQSLLKENNEQ” belongs 0.141.
As for “HMSEATTVNYKYAVTISDLRIRKGPGTNYGSVGYTGKGVFTIVAEKGGWGKLKSGAGWISLNSKYGHKVS”, the “soluble fraction (log2)” value is -0.314.
Consider “HMSEEAMVSNFRQQEILELARKDGKVTVDGLAELYDVTVQTIRRDLSDLADSGRLKRVHGGAVVPS”, for which the “soluble fraction (log2)” value was -0.465.
As to “HMSEFGENLKKLRTARDLTQQELGAKVGLSKAVVSKYENGLGYPTFDVLIRIAAYFGVTTDYLLGV”, the “soluble fraction (log2)” value was -0.309.
